Results on one molecule are retold here after US10513540B2, “Modulation of the immune response” (THE BRIGHAM AND WOMEN'S HOSPITAL, INC., priority 2012, dated 2019).

In test [1] the test system is CD4+T-cells. Kind of test: In vitro re-stimulation of CD4+ T-cells from SEB-immunized mice, TIM3 expression by FACS. The class given is cell-based, mouse. (A flow cytometer gives signals particle by particle.)
The target of test [2] is T1, TIM3 (Mus musculus, UniProt Q8VIM0).
T1 construct: expressed in transfected cells; also crossed to Ceacam1-/-), with the transgene under the human CD2 promoter
Kind of test: Staining of primary T cells with mouse CEACAM1 N-domain Fc fusion protein with or without blocking antibody (FIG. 9). It counts as binding. Particulars: primary naive T cells of TIM3 Tg mice. From the text:
Primary naïve T cells were isolated from B6 (WT) mice with transgenic (Tg) overexpression of TIM3 in T cells, wherein TIM3 is controlled by the human CD2 promotor, and TIM3 Tg mice crossed to […] (knockout) or […]. Primary T cells were stained with a mouse N-domain as an Fc fusion protein in the presence or absence of varying concentrations of a TIM3 specific monoclonal antibody, 2C12, to block binding. *, P<0.05; **, P<0.01

The subject of test [3] is TIM3 on primary T cells. Kind of test: In vivo administration of N-CEACAM1-Fc, then in vitro stimulation of lymph node cells with anti-CD3 or SEB (FIGS. 10A-10B). More on the design: species or system mouse. The note with it: 100 μg intraperitoneally, lymph nodes at 10 days.
For test [4], the system named is CD4+Vβ8+ T cells. The note with it: SEB treatment in presence or absence of fusion protein.

T1 sequence (Q8VIM0 20-281): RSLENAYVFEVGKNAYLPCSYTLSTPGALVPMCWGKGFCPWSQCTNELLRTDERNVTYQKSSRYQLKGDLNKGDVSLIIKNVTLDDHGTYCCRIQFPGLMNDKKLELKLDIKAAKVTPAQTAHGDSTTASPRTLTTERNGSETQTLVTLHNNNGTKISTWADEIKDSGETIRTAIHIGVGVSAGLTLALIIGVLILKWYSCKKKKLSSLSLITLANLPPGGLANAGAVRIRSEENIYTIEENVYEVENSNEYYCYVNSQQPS

B1: CEACAM1-Fc fusion protein: mouse CEACAM1 N-domain as an Fc fusion protein; Fc for fusion protein is human (protein)
chain: EVTIEAVPPQVAEDNNVLLLVHNLPLALGAFAWYKGNTTAIDKEIARFVPNSNMNFTGQAYSGREIIYSNGSLLFQMITMKDMGVYTLDMTDENYRRTQATVRFHVHP
modifications: left off: a dimerising Fc or GST
notes: mouse CEACAM1 N-domain as an Fc fusion protein; Fc for fusion protein is human
Turning to B1, the “TIM3 up-regulation in response to SEB re-stimulation (Mean Fluorescence)” value in test [1] (SEB-responsive T-cells, CEACAM1 ligation with fusion protein, in vitro re-stimulation) is listed as 29%. Further, in test [1] (in vitro, 0.5 mg/ml, 48 hours), the “TIM3 expression on gated CD4+ T-cells” value is “up-regulates TIM-3 in vitro”. In test [2], the “Binding to TIM3 on primary transgenic T cells” value was “binds in trans to TIM3”. For the same molecule, the “Induction of tolerance (proliferation, interferon gamma production)” value in test [3] is given as “induce tolerance”. Besides, the “T cell receptor engagement by SEB (deletion of CD4+Vβ8+ T cells)” value in test [4] was “not significantly influenced”.
